Results taken from patent CN109734806A (ANHUI ANKE BIOTECHNOLOGY GROUP CO LTD, dated 2019).
Each block holds one binder with its values, some of them ahead of it.

Experiments:
rhTIGIT-Avi-His [1] = biological target: T1, rhTIGIT-Avi-His (human, UniProt Q495A1 22-130); assay: ELISA, rhTIGIT-Avi-His coated at 0.5 ug/mL, antibody titrated
T1 construct: range 22-130; Expressed in Expi 293 cells, Ni-NTA purified; also called rhTIGIT-Avi-His抗原; not shown: C-terminal Avi tag and His tag from vector pCD-Avi-His
T1 sequence (looked up): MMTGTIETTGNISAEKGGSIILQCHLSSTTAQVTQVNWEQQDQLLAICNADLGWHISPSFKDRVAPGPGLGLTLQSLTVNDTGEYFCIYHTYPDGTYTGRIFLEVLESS

rhTIGIT-Avi-His-bio [2] = biological target: T2, rhTIGIT-Avi-His-bio (human, UniProt Q495A1 22-130, biotin linked to the Avi tag by BirA); assay: SPR (Biacore T200), rhTIGIT-Avi-His-bio captured on SA chip, antibody as analyte
T2 construct: range 22-130; Biotinylated form of rhTIGIT-Avi-His, captured on SA chip for SPR; also called 生物素标记的抗原rhTIGIT-Avi-His-bio; not shown: C-terminal Avi tag (biotinylated) and His tag from vector pCD-Avi-His
T2 sequence (looked up): T1 sequence (looked up)

[3] = biological target: T3, 人TIGIT (膜表达人TIGIT稳转细胞株DG44-TIGIT) (human, UniProt Q495A1 22-244); assay: FACS binding to DG44-TIGIT cells
T3 construct: whole, on cells; also called 细胞表面的TIGIT蛋白; huTIGIT
T3 sequence (looked up): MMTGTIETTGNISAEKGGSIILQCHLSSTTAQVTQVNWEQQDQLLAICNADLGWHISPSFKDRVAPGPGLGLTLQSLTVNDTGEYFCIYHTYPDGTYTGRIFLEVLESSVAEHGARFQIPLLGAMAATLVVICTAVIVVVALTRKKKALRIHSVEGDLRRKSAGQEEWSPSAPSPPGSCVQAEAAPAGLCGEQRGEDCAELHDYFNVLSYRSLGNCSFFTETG

[4] = biological target: T3, 人TIGIT (膜表达人TIGIT稳转细胞株DG44-TIGIT); assay: FACS blocking on DG44-TIGIT cells, competitor rhCD155-cFc-647 (1 ug/ml)
rhTIGIT-Avi-His-bio [5] = biological target: T2, rhTIGIT-Avi-His-bio; assay: SPR, KD of D1Y1A against KD of 3TB3
rhTIGIT-Avi-His [6] = biological target: T1, rhTIGIT-Avi-His; assay: ELISA on coated rhTIGIT-Avi-His

fold improvement of affinity against 3TB3 (rhTIGIT-Avi-His-bio [5]): ~4 fold
Kd (rhTIGIT-Avi-His-bio [2]): 0.266 nM
fold improvement against 3TB3 (ELISA) (rhTIGIT-Avi-His [6]): ~3 fold
B2: D1Y1A (antibody, V domains shown)
VH: DVQLQESGPGLVKPSETLSLTCTVSGGSISYWSWIRQPPGKGLEWIGSIATSYNPSLKSRTSVDTSKNQFSLKLSSVTAADTAVYYCARSYGGNRLDYWGQGTLVTVSS
VL: DIVLTQSPATLSLSPGERATLSCRASQGVRLSWYQQKPGQAPRLLIYYYRATGVPARFSGSGSGTDFTLTISSLEPEDFAVYYCLQFPTFGQGTKLEIK

EC50 (rhTIGIT-Avi-His [1]): 0.293 µg/mL
EC50 [3]: 0.0585 µg/mL
IC50 [4]: 0.308 µg/mL
B4: TDC8 (antibody, V domains shown)
VH: DVQLQESGPGLVKPSETLSLTCTVSGGSISSKGFTWSWIRQPPGKGLEWIGQISPLDSSTSYNPSLKSRVTISVDTSKNQFSLKLSSVTAADTSVYYCARGIWTYLYGFDYWGQGTLVTVSS
VL: DIVLTQSPATLSLSPGERATLSCRASQSIHAGYLAWYQQKPGQAPRLLIYWTNLRATGVPTRFSGSGSGTDFTLTISSLEPEDFAVYYCLQLMRYPPTFGQGTKLEIKR
notes: also called 全人源抗人TIGIT单抗TDC8

EC50 (rhTIGIT-Avi-His [1]): 0.754 µg/mL
EC50 [3]: 0.0872 µg/mL
IC50 [4]: 0.435 µg/mL
B5: 5TB10 (antibody, V domains shown)
VH: DVQLQESGPGLVKPSETLSLTCTVSGDSVSDAGVGWNWIRQPPGKGLEWIGTIVPRRGITTYNPSLKSRVTISVDTSKNQFSLKLSSVTAADTSVYYCARVTTAGFDYWGQGTLVTVSS
VL: DIVLTQSPATLSLSPGERATLSCRASQDVKILLNWYQQKPGQAPRLLIYWTSDRATGVPTRFSGSGSGTDFTLTISSLEPEDFAVYYCQQHLDRLPYTFGQGTKLEIKR
notes: also called 全人源抗人TIGIT单抗5TB10

Continued, binder first:

B1: 3TB3 (antibody, V domains shown)
VH: DVQLQESGPGLVKPSETLSLTCTVSGGSISGGYSWSWIRQPPGKGLEWIGSIVPHRSATSYNPSLKSRVTISVDTSKNQFSLKLSSVTAADTSVYYCARSYGGNRLDYWGQGTLVTVSS
VL: DIVLTQSPATLSLSPGERATLSCRASQGVGIRLSWYQQKPGQAPRLLIYYTAYRATGVPTRFSGSGSGTDFTLTISSLEPEDFAVYYCLQTFGDPYTFGQGTKLEIKR
notes: Parent of D1Y1A; also called 全人源抗人TIGIT单抗3TB3; 野生型3TB3
EC50 (rhTIGIT-Avi-His [1]): 0.0307 µg/mL
Kd (rhTIGIT-Avi-His-bio [2]): 1.13 nM
EC50 [3]: 0.0589 µg/mL
IC50 [4]: 0.212 µg/mL

B3: TBB8 (antibody, V domains shown)
VH: DVQLQESGPGLVKPSETLSLTCTVSGYSISTGYAWSWIRQPPGKGLEWIGSISAFGGNTYYNPSLKSRVTISVDTSKNQFSLKLSSVTAADTSVYYCARTARWIAFDYWGQGTLVTVSS
VL: DIVLTQSPATLSLSPGERATLSCRASQDIGVSLNWYQQKPGQAPRLLIYWTSFRATGVPTRFSGSGSGTDFTLTISSLEPEDFAVYYCQQANGVPLFTFGQGTKLEIKR
notes: also called 全人源抗人TIGIT单抗TBB8
EC50 (rhTIGIT-Avi-His [1]): 0.28 µg/mL
EC50 [3]: 0.096 µg/mL
IC50 [4]: 0.563 µg/mL
